Experimental data published in article PMC3817407.

How the values were obtained:
ECF37_2513 = target: T1, ECF37_2513
T1 chain: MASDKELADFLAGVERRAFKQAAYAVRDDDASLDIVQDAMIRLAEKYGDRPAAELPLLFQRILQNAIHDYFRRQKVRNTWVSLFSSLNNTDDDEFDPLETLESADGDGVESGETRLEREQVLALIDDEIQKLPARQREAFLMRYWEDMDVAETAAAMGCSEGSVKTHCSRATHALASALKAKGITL

ECF03_1244 = target: T2, ECF03_1244
T2 chain: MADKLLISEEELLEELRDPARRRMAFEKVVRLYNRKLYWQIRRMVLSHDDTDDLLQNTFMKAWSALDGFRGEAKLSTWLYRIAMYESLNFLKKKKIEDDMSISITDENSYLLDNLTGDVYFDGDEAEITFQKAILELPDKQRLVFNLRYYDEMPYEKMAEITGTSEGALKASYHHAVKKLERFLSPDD

ECF16_3622 = target: T3, ECF16_3622
T3 chain: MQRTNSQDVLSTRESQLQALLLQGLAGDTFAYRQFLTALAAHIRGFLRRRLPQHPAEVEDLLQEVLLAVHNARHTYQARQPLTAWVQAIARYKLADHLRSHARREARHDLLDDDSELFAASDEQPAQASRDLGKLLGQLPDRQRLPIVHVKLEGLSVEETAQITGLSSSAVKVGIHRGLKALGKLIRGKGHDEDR

ECF22_1147 = target: T4, ECF22_1147
T4 chain: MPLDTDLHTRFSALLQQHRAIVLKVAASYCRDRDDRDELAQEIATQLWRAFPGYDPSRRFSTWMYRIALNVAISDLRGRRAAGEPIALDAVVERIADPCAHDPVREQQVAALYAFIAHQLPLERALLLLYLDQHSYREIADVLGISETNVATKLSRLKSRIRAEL

ECF17_1691 = target: T5, ECF17_1691
T5 chain: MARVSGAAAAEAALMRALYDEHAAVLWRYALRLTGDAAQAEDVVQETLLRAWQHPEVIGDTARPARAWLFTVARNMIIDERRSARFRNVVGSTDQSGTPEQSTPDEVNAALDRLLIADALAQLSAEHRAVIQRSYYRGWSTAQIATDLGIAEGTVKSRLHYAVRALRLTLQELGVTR

ECF15_436 = target: T6, ECF15_436
T6 chain: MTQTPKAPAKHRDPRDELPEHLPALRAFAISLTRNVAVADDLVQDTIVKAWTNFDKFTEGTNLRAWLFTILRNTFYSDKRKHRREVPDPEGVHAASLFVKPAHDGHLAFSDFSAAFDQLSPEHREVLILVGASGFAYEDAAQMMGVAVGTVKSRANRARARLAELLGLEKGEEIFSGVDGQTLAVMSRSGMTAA

ECF01_3473 = target: T7, ECF01_3473
T7 chain: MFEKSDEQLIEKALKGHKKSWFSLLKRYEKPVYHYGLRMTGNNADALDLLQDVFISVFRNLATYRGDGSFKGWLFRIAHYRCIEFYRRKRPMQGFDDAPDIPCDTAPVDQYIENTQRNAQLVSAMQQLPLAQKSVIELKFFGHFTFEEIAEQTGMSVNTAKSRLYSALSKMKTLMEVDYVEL

ECF14_1324 = target: T8, ECF14_1324
T8 chain: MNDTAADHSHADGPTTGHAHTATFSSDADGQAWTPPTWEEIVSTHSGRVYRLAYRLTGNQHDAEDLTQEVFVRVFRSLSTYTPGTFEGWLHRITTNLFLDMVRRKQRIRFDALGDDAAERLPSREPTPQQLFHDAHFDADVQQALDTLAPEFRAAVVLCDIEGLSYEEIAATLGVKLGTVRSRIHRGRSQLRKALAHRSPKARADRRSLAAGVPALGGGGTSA

ECF15_524 = target: T9, ECF15_524
T9 chain: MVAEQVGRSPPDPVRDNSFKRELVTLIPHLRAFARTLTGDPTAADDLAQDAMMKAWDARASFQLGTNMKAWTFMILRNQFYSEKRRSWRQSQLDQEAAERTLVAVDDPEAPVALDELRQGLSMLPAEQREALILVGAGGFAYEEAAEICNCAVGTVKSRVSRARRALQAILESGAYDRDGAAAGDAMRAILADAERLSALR

ECF25_1645 = target: T10, ECF25_1645
T10 chain: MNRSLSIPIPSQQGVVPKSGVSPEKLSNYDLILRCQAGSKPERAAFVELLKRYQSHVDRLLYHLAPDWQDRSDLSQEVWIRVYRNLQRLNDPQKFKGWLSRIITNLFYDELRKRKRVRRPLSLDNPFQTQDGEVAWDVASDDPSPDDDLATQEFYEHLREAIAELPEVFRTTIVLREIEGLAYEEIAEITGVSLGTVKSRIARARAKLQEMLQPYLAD

ECF38_1322 = target: T11, ECF38_1322
T11 chain: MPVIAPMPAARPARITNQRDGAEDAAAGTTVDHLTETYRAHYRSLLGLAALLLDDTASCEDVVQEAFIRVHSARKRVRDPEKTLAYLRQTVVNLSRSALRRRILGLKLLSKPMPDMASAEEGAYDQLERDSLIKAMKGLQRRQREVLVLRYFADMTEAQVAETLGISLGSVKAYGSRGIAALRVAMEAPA

ECF11_987 = target: T12, ECF11_987
T12 chain: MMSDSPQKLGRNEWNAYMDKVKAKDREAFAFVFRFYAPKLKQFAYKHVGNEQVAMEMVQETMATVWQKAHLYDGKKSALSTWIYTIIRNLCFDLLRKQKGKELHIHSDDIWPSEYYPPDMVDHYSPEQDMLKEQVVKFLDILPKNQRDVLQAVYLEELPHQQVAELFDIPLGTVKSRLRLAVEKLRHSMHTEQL

ECF33_375 = target: T13, ECF33_375
T13 chain: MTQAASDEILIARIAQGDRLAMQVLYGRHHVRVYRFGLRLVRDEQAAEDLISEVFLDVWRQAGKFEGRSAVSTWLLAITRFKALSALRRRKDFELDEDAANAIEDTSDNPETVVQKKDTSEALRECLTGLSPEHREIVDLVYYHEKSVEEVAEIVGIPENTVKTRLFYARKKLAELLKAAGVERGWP

ECF34_1384 = target: T14, ECF34_1384
T14 chain: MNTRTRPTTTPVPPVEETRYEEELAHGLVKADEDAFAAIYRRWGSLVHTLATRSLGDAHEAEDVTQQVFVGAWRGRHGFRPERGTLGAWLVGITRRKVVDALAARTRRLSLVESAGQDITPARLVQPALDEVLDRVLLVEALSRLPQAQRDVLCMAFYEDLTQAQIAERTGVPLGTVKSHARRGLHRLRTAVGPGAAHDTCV

Binder	fold repression (ECF37_2513)	fold repression (ECF03_1244)	fold repression (ECF16_3622)	fold repression (ECF22_1147)	fold repression (ECF17_1691)	fold repression (ECF15_436)	fold repression (ECF01_3473)	fold repression (ECF14_1324)	fold repression (ECF15_524)	fold repression (ECF26_4464)	fold repression (ECF25_1645)	fold repression (ECF38_1322)	fold repression (ECF11_987)	fold repression (ECF33_375)	fold repression (ECF34_1384)
AS27_4265 (protein) MTGHPDVAEIADLAEGLLPTTRTTEVRQHLESCELCADVYASLTEIQGLLGTLPAPAPMPDDVAARIDAALAAEPPLGIADGTRVSRETSTPADRPAGHARPSSTGPGRKDRRRGGRRRIAVLGAVAAAAAIGIGSVVVSSLTEDSSSGNTAREQQTAIADTFSEGRLKDRVTNLVADGSAENGSRTPRSFGMESENGGETAENHVFKQPTVPECIRKGIGRDDAVIATEPGVYKGREALLVVLPDATNDTQVTAYIVETACVDQPAVGKAKILLEHSYARS	2.03	1.38	5.58	8.51	2.82	3.65	3.99	3.08	2.74	5.53	1.02	1.36	5.93	1.07	5.28
AS31_34 (protein) MNKEKLSDHLKSEWKKIDQTANPSIPNQKELLHQLSQMKAEYRKKLLQEIILFVFCALMVVSAAILAFTQAPAVFIVLQVCVLAVLPILIAAEKKRHLGECEVKRG	3.38	2.34	3.01	3.62	2.93	2.54	1.76	6.35	2.19	3.63	1.99	2.06	3.03	2.06	2.98
AS25_1645 (protein) MNESFSQRQTDGDRRRGGDLEMKKNHTSHQHHTDSETPMGHNFEQFQRLSAYFDGEATPAERKEIQHLLDTDPQVKQQYQQLRQLKQALQLLPIPTSISAQYLGQRVLARLRRSQLRTLSLWGSGAIAALFVAGVMGQMPRLNFDRFAKNDPDQQPTAALVETSPQGEEALVVALNRPVLQIPKLATTESP	7.52	4.7	6.9	7.04	4.24	8.62	7.11	18.7	6.73	15.3	33.7	3.98	8.87	3.29	7.62
AS27_1331 (protein) MSAADKDPDKHSADADPPLTVELLADLQAGLLDDATAARIRSRVRSDPQAQQILRALNRVRRDVAAMGADPAWGPAARPAVVDSISAALRSARPNSSPGAAHAARPHVHPVRMIAGAAGLCAVATAIGVGAVVDAPPPAPSAPTTAQHITVSKPAPVIPLSRPQVLDLLHHTPDYGPPGGPLGDPSRRTSCLSGLGYPASTPVLGAQPIDIDARPAVLLVIPADTPDKLAVFAVAPHCSAADTGLLASTVVPRA	2.75	4.29	6.93	2.2	2.09	4.26	2.69	5.93	3.38	3.61	3.12	3.98	5.69	4.75	2.35
AS30_35 (protein) MDKRLQQLREEYKNVQIPKELDIIVEKALQQEPKKKRIVMWPTSAAIAAAILFTALVNINPDAAQAMSKIPVIGKIVKAITFIEIKEEKDQSSIDVKTPALSGLSNKELENSINEKYLKESQQLYKEFIQSTSKNKKGHLSIYSDYETVTDTPDLLSIRRNIETTQASSYTQSRYITIDKKNDILLTLKSLFKDERYIKVISQNIKEQMKQQMKEDPNKIYWLTDEDAEPFKTILPDQTFYITEDHKLVISFDEYEVAPGYMGVTEFTIPTGVISNLLVGERYIR	2.3	1.74	1.39	2.12	1.6	1.98	1.65	1.7	1.74	2.19	1.69	1.84	2.11	1.3	2.04
AS25_1643_cl43 (protein) MTTDSNFNDPCRRQFSRDLPQKMARHTNEATGAMDMVKRDRFELLSAYLGGEVTAAERRQVEDWPANDVAVQRLYSRLLKLRQGIRTMPIPTAQQSPETTAEQVFAKVNRRSRLAWKLGGAAVAACVIGAVTNWLPGRQTGIPQLAQQPQEQPTQAVTTPDALPMIALNNPVIEIPKAAVASPTKFIQPQPQLGEIPPDIN	1.9	1.06	2.26	5.45	1.92	1.2	2.75	1.77	1.18	6.66	7.28	0.931	2.43	0.709	2.43
